What was measured:
[1] = molecular target: HTT(1-17) peptide, the 17 N-terminal residues of huntingtin (human) (UniProt P42858); assay: ITC; isothermal calorimetry of C4 scFv with HTT(1-17) and truncated peptides; conditions not shown (Fig. S3)
[2] = molecular target: truncated peptide HTT(1-14) (human) (UniProt P42858); assay: as above

Substance: C4 single-chain Fv antibody (C4 scFv)
- Kd [1]: 0.05 µM
- fold decrease in binding affinity compared to HTT(1-17) [2]: 10 fold

Source: article PMC4451460
